B1: 16F12 human IgG4 (antibody, V domains shown)
VH: QVHLVESGGGVVQPGRSLRLSCAASGFTFNSFGMHWVRQAPGKGLEWVALIWSDGSDEYYADSVKGRFTISRDNSKNTLYLQMNSLRAEDTAVYYCARAIAALYYYYGMDVWGQGTTVTVSS
VL: QSVLTQPPSVSAAPGQKVTISCSGSSSNIGNNFVSWYQQLPGTAPKLLIYDYNKRPSGIPDRFSGSKSGTSATLGITGLQTGDEADYYCGTWDSSLSAYVFGTGTRVTVLQ
notes: also called 16F12.1; 16F12, anti-PCSK9 huIgG4
B2: 11F1 anti-PCSK9 antibody (antibody, V domains shown)
VH: EVQLVESGGGLVQPGGSLRLSCAASGFTFSNYWMSWVRQAPGKGLEWVASIKQDGSEKYYVDSVKGRFAISRDNAKNSLFLQMNSLRAEDTAVYYCARDLVLMVYDIDYYYYGMDVWGQGTTVTVSS
VL: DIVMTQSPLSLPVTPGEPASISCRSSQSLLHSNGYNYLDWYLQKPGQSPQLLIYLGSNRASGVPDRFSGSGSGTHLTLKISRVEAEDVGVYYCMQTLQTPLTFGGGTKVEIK

Assays:
[1] = target: T1, mouse PCSK9, 8xHis tagged (mouse, UniProt Q80W65 35-694); experiment: KinExA solution equilibrium
T1 construct: The biotinylated mouse PCSK9 of the hybridoma cross-reactivity screen is entered under this molecule; also called mPCSK9-8xHIS; mPCSK9; not shown: 8xHis tag named only in the label
T1 sequence (Q80W65 35-694): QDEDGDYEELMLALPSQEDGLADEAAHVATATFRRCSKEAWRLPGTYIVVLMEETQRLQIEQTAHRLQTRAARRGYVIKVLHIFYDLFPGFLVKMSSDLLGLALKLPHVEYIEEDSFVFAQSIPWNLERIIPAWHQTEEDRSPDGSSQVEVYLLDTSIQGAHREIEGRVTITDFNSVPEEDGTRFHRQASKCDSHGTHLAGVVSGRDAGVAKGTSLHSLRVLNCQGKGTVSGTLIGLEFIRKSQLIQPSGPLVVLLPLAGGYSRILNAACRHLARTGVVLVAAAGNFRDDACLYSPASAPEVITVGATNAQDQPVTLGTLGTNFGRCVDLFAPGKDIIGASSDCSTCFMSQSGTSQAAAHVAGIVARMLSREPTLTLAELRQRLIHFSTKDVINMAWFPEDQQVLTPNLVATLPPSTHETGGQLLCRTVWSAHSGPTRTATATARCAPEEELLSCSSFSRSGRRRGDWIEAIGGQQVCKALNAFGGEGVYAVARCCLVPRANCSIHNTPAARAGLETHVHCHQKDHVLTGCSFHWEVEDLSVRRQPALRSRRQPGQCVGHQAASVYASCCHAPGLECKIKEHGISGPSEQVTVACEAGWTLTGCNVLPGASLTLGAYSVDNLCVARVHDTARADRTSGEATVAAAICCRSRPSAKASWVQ

[2] = target: human PCSK9 (proprotein convertase subtilisin kexin type 9), wild type (human, UniProt Q8NBP7 31-692, biotinylated in the ELISA formats (site not stated)); experiment: cell-based or functional assay
human PCSK9 D374Y mutant = human PCSK9 D374Y mutant (human, UniProt Q8NBP7 31-692, biotinylated in the ELISA formats (site not stated)); experiment: cell-based or functional assay

Binder | fold lower affinity to mouse PCSK9 than to human and cyno PCSK9 [1] [fold] | EC50, block of PCSK9-mediated decrease of BODIPY-LDL uptake in HepG2 cells [2] [nM] | EC50, block of PCSK9-mediated decrease of BODIPY-LDL uptake in HepG2 cells (human PCSK9 D374Y mutant) [nM]
B1 | 10 to 250 | – | –
B2 | – | 124 | 35.3

From patent US20150004174A1 (Amgen, published 2015)
